Data on 4 molecules can be found in paper PMC9474812, “Structure of the membrane-bound formate hydrogenlyase complex from Escherichia coli” (Nature Communications, 2022).

The labels stand for the following.
B1: HycB (natural protein, Escherichia coli, UniProt P0AAK1 1-203, looked up)
chain: MNRFVIADSTLCIGCHTCEAACSETHRQHGLQSMPRLRVMLNEKESAPQLCHHCEDAPCAVVCPVNAITRVDGAVQLNESLCVSCKLCGIACPFGAIEFSGSRPLDIPANANTPKAPPAPPAPARVSTLLDWVPGIRAIAVKCDLCSFDEQGPACVRMCPTKALHLVDNTDIARVSKRKRELTFNTDFGDLTLFQQAQSGEAK
notes: HycB, ferredoxin-like subunit of the E. coli formate hydrogenlyase (FHL) complex; coordinates [4Fe4S] clusters B1-B4; Native subunit from the hycABCDEFGHI operon, not tagged; also called ferredoxin-like protein HycB; source: endogenous, E. coli strain MG059e1, anaerobic fermentation; co-purified with His10-HycE from LMNG-solubilised membranes (HisTrap, SEC)
B3: HycE, the large hydrogenase subunit of FHL, with an internal 10x His affinity tag (enzyme, Escherichia coli, UniProt P16431 1-537, looked up)
chain: MSEEKLGQHYLAALNEAFPGVVLDHAWQTKDQLTVTVKVNYLPEVVEFLYYKQGGWLSVLFGNDERKLNGHYAVYYVLSMEKGTKCWITVRVEVDANKPEYPSVTPRVPAAVWGEREVRDMYGLIPVGLPDERRLVLPDDWPDELYPLRKDSMDYRQRPAPTTDAETYEFINELGDKKNNVVPIGPLHVTSDEPGHFRLFVDGENIIDADYRLFYVHRGMEKLAETRMGYNEVTFLSDRVCGICGFAHSTAYTTSVENAMGIQVPERAQMIRAILLEVERLHSHLLNLGLACHFTGFDSGFMQFFRVRETSMKMAEILTGARKTYGLNLIGGIRRDLLKDDMIQTRQLAQQMRREVQELVDVLLSTPNMEQRTVGIGRLDPEIARDFSNVGPMVRASGHARDTRADHPFVGYGLLPMEVHSEQGCDVISRLKVRINEVYTALNMIDYGLDNLPGGPLMVEGFTYIPHRFALGFAEAPRGDDIHWSMTGDNQKLYRWRCRAATYANWPTLRYMLRGNTVSDAPLIIGSLDPCYSCTDR
notes: HycE, large [NiFe] hydrogenase subunit of the E. coli formate hydrogenlyase (FHL) complex; His10 tag placed after Gly-83; also called [NiFe] hydrogenase HycE; Hyd-3 large subunit; source: purified from LMNG-solubilised membranes (HisTrap, SEC); not shown: His10, internal (after residue 83), kept

For assay [1], the target named is B3. Description: co-purification (His-tag affinity, then SEC); anaerobic isolation: as the aerobic one but in an anaerobic chamber (<1 ppm O2, 3-4% hydrogen in nitrogen), anaerobic buffers, lysis by sonication (also bead-beating or B-PER). The following applies: partners not purified.
Assay [2] has as its target T1, formate dehydrogenase H (FdhF) (Escherichia coli, UniProt P07658 1-715, metal-coordinating selenocysteine (Sec); position not given).
T1 construct: Formate dehydrogenase H, FdhF, subunit of the E. coli formate hydrogenlyase (FHL) complex; carries Mo(MGD)2 and [4Fe4S] cluster A1; Native subunit, not tagged; also called formate dehydrogenase subunit FdhF; source: endogenous, E. coli strain MG059e1, anaerobic fermentation; co-purified with His10-HycE from LMNG-solubilised membranes (HisTrap, SEC)
T1 sequence (looked up): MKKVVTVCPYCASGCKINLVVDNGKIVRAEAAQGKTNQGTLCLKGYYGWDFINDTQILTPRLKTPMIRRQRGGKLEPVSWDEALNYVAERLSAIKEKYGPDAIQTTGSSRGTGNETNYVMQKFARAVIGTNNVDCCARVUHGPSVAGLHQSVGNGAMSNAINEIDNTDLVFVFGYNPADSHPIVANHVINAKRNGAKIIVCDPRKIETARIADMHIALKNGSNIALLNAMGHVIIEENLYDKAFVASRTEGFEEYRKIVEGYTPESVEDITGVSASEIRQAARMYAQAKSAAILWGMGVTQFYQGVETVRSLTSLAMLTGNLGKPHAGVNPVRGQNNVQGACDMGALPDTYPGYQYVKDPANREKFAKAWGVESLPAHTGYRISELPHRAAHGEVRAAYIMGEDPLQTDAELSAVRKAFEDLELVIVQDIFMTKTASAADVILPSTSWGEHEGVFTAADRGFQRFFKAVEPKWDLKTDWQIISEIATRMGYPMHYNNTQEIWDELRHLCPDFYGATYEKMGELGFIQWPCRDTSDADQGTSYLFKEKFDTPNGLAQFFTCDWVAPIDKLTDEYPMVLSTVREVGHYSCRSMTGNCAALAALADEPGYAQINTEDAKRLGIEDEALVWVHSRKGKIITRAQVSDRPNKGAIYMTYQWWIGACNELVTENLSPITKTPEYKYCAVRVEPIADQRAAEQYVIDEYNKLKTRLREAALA
Description: cryo-EM structure; aerobically isolated FHL (heptameric FdhF-HycBCDEFG) in LMNG, single-particle analysis, 3.4 Å (focused refinements 3.0-3.4 Å). Conditions: both partners purified.

Assay [3] concerns the target B3. Put plainly: co-purification (His-tag affinity, then SEC); aerobic isolation: membranes solubilised with 0.5% LMNG, HisTrap FF by the His10 tag in HycE, Superdex 200 Increase; 20 mM Tris, 200 mM NaCl, 1 mM DTT, 0.005% LMNG, pH 7.5. Conditions: partners not purified.
Assay [4] concerns the target T2, HycC (Escherichia coli, UniProt P16429 1-608).
T2 construct: Native subunit from the hycABCDEFGHI operon, not tagged; also called antiporter-like subunit HycC; source: endogenous, E. coli strain MG059e1, anaerobic fermentation; co-purified with His10-HycE from LMNG-solubilised membranes (HisTrap, SEC)
T2 sequence (looked up): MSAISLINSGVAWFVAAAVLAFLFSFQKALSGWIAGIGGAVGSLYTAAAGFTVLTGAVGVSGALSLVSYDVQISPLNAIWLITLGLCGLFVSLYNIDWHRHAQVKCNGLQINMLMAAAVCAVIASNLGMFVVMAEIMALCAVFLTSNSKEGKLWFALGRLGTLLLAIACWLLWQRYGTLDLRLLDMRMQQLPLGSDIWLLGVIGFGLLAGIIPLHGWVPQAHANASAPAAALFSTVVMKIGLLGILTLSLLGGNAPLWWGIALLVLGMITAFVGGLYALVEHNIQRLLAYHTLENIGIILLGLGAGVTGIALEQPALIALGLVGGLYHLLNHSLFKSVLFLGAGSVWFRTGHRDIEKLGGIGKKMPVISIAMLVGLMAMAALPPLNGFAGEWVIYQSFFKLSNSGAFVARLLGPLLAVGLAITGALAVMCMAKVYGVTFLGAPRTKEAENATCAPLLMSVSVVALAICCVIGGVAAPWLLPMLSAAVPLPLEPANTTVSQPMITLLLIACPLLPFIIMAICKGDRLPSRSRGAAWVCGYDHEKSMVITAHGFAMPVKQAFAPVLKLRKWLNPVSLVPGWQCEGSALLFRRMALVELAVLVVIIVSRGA
Put plainly: cryo-EM structure; anaerobically isolated FHL (hexameric HycBCDEFG) in LMNG, grids prepared in the anaerobic chamber with fluorinated fos-choline-8, 2.6 Å. Conditions: both partners purified.

Assay [5] deals with T2, HycC. Description: co-purification (His-tag affinity, then SEC); aerobic isolation: membranes solubilised with 0.5% LMNG, HisTrap FF by the His10 tag in HycE, Superdex 200 Increase; 20 mM Tris, 200 mM NaCl, 1 mM DTT, 0.005% LMNG, pH 7.5. Conditions: partners not purified.
For assay [6], the target named is B1. Put plainly: cryo-EM structure; anaerobically isolated FHL (hexameric HycBCDEFG) in LMNG, grids prepared in the anaerobic chamber with fluorinated fos-choline-8, 2.6 Å. Conditions: both partners purified.

B1: the binding result in assay [1] and in assay [2] was “binds” in each case.

B2: HycD (natural protein, Escherichia coli, UniProt P16430 1-307, looked up)
chain: MSVLYPLIQALVLFAVAPLLSGITRVARARLHNRRGPGVLQEYRDIIKLLGRQSVGPDASGWVFRLTPYVMVGVMLTIATALPVVTVGSPLPQLGDLITLLYLFAIARFFFAISGLDTGSPFTAIGASREAMLGVLVEPMLLLGLWVAAQVAGSTNISNITDTVYHWPLSQSIPLVLALCACAFATFIEMGKLPFDLAEAEQELQEGPLSEYSGSGFGVMKWGISLKQLVVLQMFVGVFIPWGQMETFTAGGLLLALVIAIVKLVVGVLVIALFENSMARLRLDITPRITWAGFGFAFLAFVSLLAA
notes: HycD, integral membrane subunit (ND1 homolog) of the E. coli formate hydrogenlyase (FHL) complex, eight TMHs; Native subunit from the hycABCDEFGHI operon, not tagged; also called membrane-anchor subunit HycD (ND1 homolog); source: endogenous, E. coli strain MG059e1, anaerobic fermentation; co-purified with His10-HycE from LMNG-solubilised membranes (HisTrap, SEC)
As for B2, the binding result in assay [3] and in assay [4] was “binds” each time.

In the case of B3, the binding result in assay [5] is “binds”.

B4: HycF (natural protein, Escherichia coli, UniProt P16432 1-180, looked up)
chain: MFTFIKKVIKTGTATSSYPLEPIAVDKNFRGKPEQNPQQCIGCAACVNACPSNALTVETDLATGELAWEFNLGHCIFCGRCEEVCPTAAIKLSQEYELAVWKKEDFLQQSRFALCNCRVCNRPFAVQKEIDYAIALLKHNGDSRAENHRESFETCPECKRQKCLVPSDRIELTRHMKEAI
notes: HycF, ferredoxin-like subunit (NDUFS8 homolog) of the E. coli formate hydrogenlyase (FHL) complex; coordinates [4Fe4S] clusters F1, F2 and a metal ion at Cys117, Cys120, Cys155, Cys158; Native subunit from the hycABCDEFGHI operon, not tagged; also called ferredoxin-like protein HycF; source: endogenous, E. coli strain MG059e1, anaerobic fermentation; co-purified with His10-HycE from …
For B4, the binding result in assay [6] and in assay [2] was “binds” throughout.
